# US20250000950A1, “PRESERVED FORMULATIONS” (ELI LILLY AND COMPANY, priority 2021, published 2025)
# What was measured:
# [1] = Onset of melting temperature (Tm, Onset) by differential scanning calorimetry (DSC); type: physicochemical; details: BIF 2 mg/mL
# Description: Biophysical developability/high-throughput profiling studies are conducted on 2 mg/mL formulations of BIF in different buffer matrices and pH conditions. The onset of melting temperature Tm (Tm, Onset) was measured using differential scanning calorimetry (DSC). Tm, Onset is the temperature at which a folded protein starts to lose its native conformation, i.e., the higher the Tm, Onset, the less susceptible a protein to denaturation.
# [2] = Isoelectric point of BIF; type: physicochemical
molecule,measurement,setting,value
"insulin efsitora alfa (protein, homodimer, dimer of an insulin receptor agonist fused to a human IgG Fc region) FVNQHLCGSHLVEALELVCGERGFHYGGGGGGSGGGGGIVEQCCTSTCSLDQLENYCGGGGGQGGGGQGGGGQGGGGGECPPCPAPPVAGPSVFLFPPKPKDTLMISRTPEVTCVVVDVSHEDPEVQFNWYVDGVEVHNAKTKPREEQFNSTFRVVSVLTVVHQDWLNGKEYKCKVSNKGLPAPIEKTISKTKGQPREPQVYTLPPSREEMTKNQVSLTCLVKGFYPSDIAVEWESNGQPENNYKTTPPMLDSDGSFFLYSKLTVDKSRWQQGNVFSCSVMHEALHNHYTQKSLSLSPG","Tm, Onset","[1]; Citrate 10 mM, NaCl 25 mM, pH 5.5",60.29 °C
same,"Tm, Onset","[1]; Citrate 10 mM, NaCl 25 mM, pH 6.0",63.58 °C
same,"Tm, Onset","[1]; Citrate 10 mM, NaCl 25 mM, pH 6.5",65.61 °C
same,"Tm, Onset","[1]; Citrate 10 mM, NaCl 25 mM, pH 7.0",66.32 °C
same,"Tm, Onset","[1]; Citrate 10 mM, NaCl 150 mM, pH 5.5",59.59 °C
same,"Tm, Onset","[1]; Citrate 10 mM, NaCl 150 mM, pH 6.0",62.78 °C
same,"Tm, Onset","[1]; Citrate 10 mM, NaCl 150 mM, pH 6.5",64.76 °C
same,"Tm, Onset","[1]; Citrate 10 mM, NaCl 150 mM, pH 7.0",65.41 °C
same,"Tm, Onset","[1]; Phosphate 10 mM, NaCl 25 mM, pH 6.0",62.86 °C
same,"Tm, Onset","[1]; Phosphate 10 mM, NaCl 25 mM, pH 6.5",64.06 °C
same,"Tm, Onset","[1]; Phosphate 10 mM, NaCl 25 mM, pH 7.0",66.39 °C
same,"Tm, Onset","[1]; Phosphate 10 mM, NaCl 25 mM, pH 7.5",66.90 °C
same,"Tm, Onset","[1]; Phosphate 10 mM, NaCl 150 mM, pH 6.0",63.36 °C
same,"Tm, Onset","[1]; Phosphate 10 mM, NaCl 150 mM, pH 6.5",64.42 °C
same,"Tm, Onset","[1]; Phosphate 10 mM, NaCl 150 mM, pH 7.0",65.79 °C
same,"Tm, Onset","[1]; Phosphate 10 mM, NaCl 150 mM, pH 7.5",66.11 °C
same,pl (isoelectric point) of BIF,[2],≈ 6.1
